Experimental data: patent US5972599

Columns and labels:
IL-4 (Homo sapiens) = target: T1, IL-4 (Homo sapiens) (UniProt P05112); assay: filter
T1 sequence: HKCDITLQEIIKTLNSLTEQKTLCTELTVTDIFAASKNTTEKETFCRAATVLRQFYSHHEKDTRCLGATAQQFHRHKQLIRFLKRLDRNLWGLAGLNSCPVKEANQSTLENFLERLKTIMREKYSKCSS

IFN-gamma (Homo sapiens) = target: T2, IFN-gamma (Homo sapiens) (UniProt P01579); assay: filter
T2 sequence: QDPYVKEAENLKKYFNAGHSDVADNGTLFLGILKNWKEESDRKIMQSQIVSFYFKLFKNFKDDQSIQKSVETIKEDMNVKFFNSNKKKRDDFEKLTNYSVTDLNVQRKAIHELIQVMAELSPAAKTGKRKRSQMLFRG

RANTES (Homo sapiens) = target: T3, RANTES (Homo sapiens) (UniProt P13501); assay: filter
T3 sequence: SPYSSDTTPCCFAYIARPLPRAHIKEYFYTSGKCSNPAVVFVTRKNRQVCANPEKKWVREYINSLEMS

IFN-gamma (Mus musculus) = target: T4, IFN-gamma (Mus musculus) (UniProt P01580); assay: filter; conditions: mouse protein
T4 sequence: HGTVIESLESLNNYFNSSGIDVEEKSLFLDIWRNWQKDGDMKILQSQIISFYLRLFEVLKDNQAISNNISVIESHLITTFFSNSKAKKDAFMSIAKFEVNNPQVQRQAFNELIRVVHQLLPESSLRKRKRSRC

TNF-alpha (Homo sapiens) [1] = target: TNF-alpha (Homo sapiens) (UniProt P01375); assay: filter
TNF-alpha (Homo sapiens) [2] = target: TNF-alpha (Homo sapiens) (UniProt P01375); assay: competition; conditions: random RNA control, U937 cells
TNF-beta (Homo sapiens) = target: T5, TNF-beta (Homo sapiens) (UniProt P01374); assay: filter; conditions: specificity control
T5 sequence: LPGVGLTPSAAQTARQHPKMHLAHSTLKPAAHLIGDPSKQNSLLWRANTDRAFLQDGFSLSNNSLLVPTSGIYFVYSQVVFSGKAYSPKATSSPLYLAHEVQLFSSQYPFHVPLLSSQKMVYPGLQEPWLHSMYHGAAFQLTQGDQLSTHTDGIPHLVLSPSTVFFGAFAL

TNF-alpha (Mus musculus) = target: T6, TNF-alpha (Mus musculus) (UniProt P06804); assay: filter; conditions: specificity control
T6 sequence: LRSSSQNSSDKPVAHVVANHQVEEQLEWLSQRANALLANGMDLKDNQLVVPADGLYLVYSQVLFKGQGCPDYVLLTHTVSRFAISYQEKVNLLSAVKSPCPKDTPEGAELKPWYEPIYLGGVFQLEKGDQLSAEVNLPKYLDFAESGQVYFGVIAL

[3] = 2'-F all C, 2'-NH2 all U, random pool
[4] = 2'-NH2 all C and U, random pool
[5] = 2'-F all C and U, round 17 pool
[6] = 2'-F all C, 2'-NH2 all U, round 17 pool

Chain of TNF-alpha (Homo sapiens) (P01375 77-233): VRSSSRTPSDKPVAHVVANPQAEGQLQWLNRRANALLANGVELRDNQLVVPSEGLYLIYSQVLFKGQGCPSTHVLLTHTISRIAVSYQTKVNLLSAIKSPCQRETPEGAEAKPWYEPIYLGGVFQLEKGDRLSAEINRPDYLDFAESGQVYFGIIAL

GGGAGACAAGAAUAAACGCUCAANNNNNNNNNNNNNNNNNNNNNNNNNNNNNNNNNNNNNNNNUUCGACAGGAGGCUCACAACAGGC [40N8 random pool 2'F/NH2]
Kd (IL-4 (Homo sapiens); [3]): > 20 µM

GGGAGGACGAUGCGGNNNNNNNNNNNNNNNNNNNNNNNNNNNNNNNNNNNNNNNNCAGACGACUCGCCCGA [40N7 random pool 2'F]
Kd (IFN-gamma (Homo sapiens); 2'-F all C and U, random pool): > 0.7 µM

GGGAGACAAGAAUAAACGCUCAANNNNNNNNNNNNNNNNNNNNNNNNNNNNNNNNNNNNNNNNUUCGACAGGAGGCUCACAACAGGC [40N8 random pool 2'F]
Kd (IL-4 (Homo sapiens); 2'-F all C and U, random pool): > 20 µM

GGGAGGACGATGCGGNNNNNNNNNNNNNNNNNNNNNNNNNNNNNNNNNNNNNNNNCAGACGACTCGCCCGA [RANTES round 19 ssDNA pool]
Kd (RANTES (Homo sapiens); round 19, 150 mM NaCl, text says 20 nM): 0.018 µM

GGGAGGACGAUGCGGNNNNNNNNNNNNNNNNNNNNNNNNNNNNNNNNNNNNNNNNCAGACGACUCGCCCGA [IFN-gamma round 17 pool 2'NH2]
Kd (IFN-gamma (Mus musculus); 2'-NH2 all C and U): 0.085 µM | Kd (IFN-gamma (Homo sapiens); 2'-NH2 all C and U, round 17 pool): 0.02 µM

GGGAGACAAGAAUAAACGCUCAANNNNNNNNNNNNNNNNNNNNNNNNNNNNNNNNNNNNNNNNUUCGACAGGAGGCUCACAACAGGC [40N8 random pool 2'NH2]
Kd (IL-4 (Homo sapiens); [4]): > 20 µM

GGGAGACAAGAAUAAACGCUCAANNNNNNNNNNNNNNNNNNNNNNNNNNNNNNNNNNNNNNNNUUCGACAGGAGGCUCACAACAGGC [IL-4 round 17 pool 2'F]
Kd (IL-4 (Homo sapiens); [5]): 0.03 µM

GGGAGGACGAUGCGGNNNNNNNNNNNNNNNNNNNNNNNNNNNNNNNNNNNNNNNNCAGACGACUCGCCCGA [40N7 random pool 2'F/NH2]
Kd (IFN-gamma (Homo sapiens); [3]): > 0.7 µM

GGGAGGACGATGCGGNNNNNNNNNNNNNNNNNNNNNNNNNNNNNNNNNNNNNNNNCAGACGACTCGCCCGA [RANTES random ssDNA pool 40N7]
Kd (RANTES (Homo sapiens); starting pool, 150 mM NaCl): 3 µM

GGGAGACAAGAAUAAACGCUCAANNNNNNNNNNNNNNNNNNNNNNNNNNNNNNNNNNNNNNNNUUCGACAGGAGGCUCACAACAGGC [IL-4 round 17 pool 2'NH2]
Kd (IL-4 (Homo sapiens); 2'-NH2 all C and U, round 17 pool, high filter background, earlier round about 100 nM): 1 µM

GGGAGCUCAGAAUAAACGCUCAANNNNNNNNNNNNNNNNNNNNNNNNNNNNNNUUCGACAUGAGGCCCGGAUCCGGC [TNF random RNA]
Kd (TNF-alpha (Homo sapiens) [1]; estimated, flat curves up to 10 uM protein): > 1000 µM | Ki (TNF-alpha (Homo sapiens) [2]): > 1000 µM

GGGAGGACGAUGCGGNNNNNNNNNNNNNNNNNNNNNNNNNNNNNNNNNNNNNNNNCAGACGACUCGCCCGA [40N7 random pool 2'NH2]
Kd (IFN-gamma (Homo sapiens); [4]): > 0.7 µM

GGGAGGACGAUGCGGNNNNNNNNNNNNNNNNNNNNNNNNNNNNNNNNNNNNNNNNCAGACGACUCGCCCGA [IFN-gamma round 17 pool 2'F/NH2]
Kd (IFN-gamma (Mus musculus); 2'-F all C, 2'-NH2 all U): 0.175 µM | Kd (IFN-gamma (Homo sapiens); [6]): 0.115 µM

GGGAGGACGAUGCGGNNNNNNNNNNNNNNNNNNNNNNNNNNNNNNNNNNNNNNNNCAGACGACUCGCCCGA [IFN-gamma round 17 pool 2'F]
Kd (IFN-gamma (Mus musculus); 2'-F all C and U): 0.41 µM | Kd (IFN-gamma (Homo sapiens); [5]): 0.07 µM

GGGAGCUCAGAAUAAACGCUCAANNNNNNNNNNNNNNNNNNNNNNNNNNNNNNUUCGACAUGAGGCCCGGAUCCGGC [TNF round 6 C-SELEX pool]
Kd (TNF-alpha (Homo sapiens) [1]; C-SELEX final pool): 0.4 µM

GGGAGCUCAGAAUAAACGCUCAANNNNNNNNNNNNNNNNNNNNNNNNNNNNNNUUCGACAUGAGGCCCGGAUCCGGC [TNF round 23 A-SELEX pool]
Kd (TNF-beta (Homo sapiens)): > 1000 µM | Kd (TNF-alpha (Homo sapiens) [1]; round 23A pool): 0.7 µM | Kd (TNF-alpha (Mus musculus)): > 1000 µM

GGGAGACAAGAAUAAACGCUCAANNNNNNNNNNNNNNNNNNNNNNNNNNNNNNNNNNNNNNNNUUCGACAGGAGGCUCACAACAGGC [IL-4 round 17 pool 2'F/NH2]
Kd (IL-4 (Homo sapiens); [6]): 0.055 µM
